Measured values reported in US20260250320A1, “LIPIDATED PEPTIDE INHIBITORS OF INTERLEUKIN-23 RECEPTOR” (Janssen Pharmaceutica NV, priority 2023, published 2026).
*1 amine or outer side, *2 acyl side, *3 side chain or, on linkers, in order; H or OH if unused. Bridges are numbered along the chain shown (N, C = ends). Primed or numbered codes have the meaning given here. Where no end group is shown, it is not given here. Side-chain parts run from the residue outwards. [ ]: non-standard residue; d: D form. The star is where a group is joined. code d = side-chain group of K(d): lysine given as (2R)-2-(4-((5-amino-5-carboxypentyl)amino)-4-oxobutanamido)-3-carboxy-N,N,N-trimethylpropan-1-aminium, C[N+](C)(C)C[C@@H](CC(=O)O)NC(=O)CCC(=O)*; code d″ = lysine side-chain amide of a carnitine-succinyl group ((2R)-3-carboxy-N,N,N-trimethylpropan-1-aminium amide; Biotin = O=C1N[C@H]2[C@H](CS[C@H]2CCCCC(=O)*)N1; PEG2′ = PEG2 spacer unit (not further defined); Trp(7-Me) = Cc1cccc2c(C[C@H](N)C(=O)O)c[nH]c12; γGlu = O=C(O)[C@H](CCC(=O)[*:2])N[*:1]; 2Nal = N[C@@H](Cc1ccc2ccccc2c1)C(=O)O; AEF = NCCOc1ccc(C[C@H](N)C(=O)O)cc1; 3Pal = N[C@@H](Cc1cccnc1)C(=O)O; NMeK = CN[C@@H](CCCCN)C(=O)O; Pen = CC(C)(S)[C@H](N)C(=O)O; PEG2″ = PEG2 spacer unit; PEG4′ = not defined here; dAEF′ = not defined here; Thp = NC1(C(=O)O)CCOCC1; Sar = CNCC(=O)O

T1: interleukin-23 receptor (IL-23R) (UniProt Q5VWK5 24-629, limits assumed)
T1 sequence (looked up): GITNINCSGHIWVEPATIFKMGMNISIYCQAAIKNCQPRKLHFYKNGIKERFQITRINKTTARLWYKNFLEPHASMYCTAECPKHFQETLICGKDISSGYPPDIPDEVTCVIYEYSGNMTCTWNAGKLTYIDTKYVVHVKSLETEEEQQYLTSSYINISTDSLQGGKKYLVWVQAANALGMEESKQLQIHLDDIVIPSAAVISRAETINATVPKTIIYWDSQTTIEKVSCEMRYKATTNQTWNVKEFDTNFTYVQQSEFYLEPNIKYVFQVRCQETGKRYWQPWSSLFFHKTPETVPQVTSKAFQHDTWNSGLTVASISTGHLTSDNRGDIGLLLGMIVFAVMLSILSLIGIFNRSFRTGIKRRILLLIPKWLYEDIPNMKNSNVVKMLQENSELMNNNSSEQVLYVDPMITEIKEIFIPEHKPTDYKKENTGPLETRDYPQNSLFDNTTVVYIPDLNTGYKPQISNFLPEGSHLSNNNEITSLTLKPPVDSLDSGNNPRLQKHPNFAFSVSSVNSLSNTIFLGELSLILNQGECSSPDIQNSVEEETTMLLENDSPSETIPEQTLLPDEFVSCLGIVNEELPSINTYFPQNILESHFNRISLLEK


What was measured:
[1] = biological target: T1, interleukin-23 receptor (IL-23R); experiment: cell-based or functional assay
[2] = biological target: T1, interleukin-23 receptor (IL-23R); experiment: cell-based or functional assay; remark: listed apart in the source

| Binder | PBMC pSTAT3 IC50 [1] [nM] | IC50, IL23R reporter assay [2] [nM] |
| --- | --- | --- |
| Ac-[dR][Pen]NT[Trp(7-Me)]K(Ac)[Pen][AEF][2Nal][Thp]K([PEG4′-Biotin])N[3Pal][Sar]K([PEG2″-PEG2″-γGlu-C18OH])-NH2 (disulfide 2-7) [SEQ ID NO: 56] | < 0.5 | < 50 |
| Ac-[dK]([PEG2′-PEG2′-γGlu-C18OH])[Pen]NT[Trp(7-Me)]K(Ac)[Pen][AEF][2Nal][Thp]XN[3Pal][Sar]-NH2 (disulfide 2-7 (inferred); not fully specified (residue 11); printed as MeCO-k(PEG2PEG2gEC18OH)-Pen(3)-N-T-7MeW-K(Ac)-Pen(3)-AEF-2Nal-THP-K(d)-N-3Pya-Sar-CONH2) [SEQ ID NO: 33] | < 0.5 | < 50 |
| XNTXXXXXXENXXK (MeCO-Pen(3)-N-T-7MeW-K(Ac)-Pen(3)-AEF-2Nal-THP-E-N-3Pya-Sar-K(PEG2PEG2gEC18OH)-CONH2) [SEQ ID NO: 27] | < 0.5 | < 50 |
| Ac-[dR][Pen]NT[Trp(7-Me)]K(Ac)[Pen][AEF][2Nal][Thp]K(code d″)N[3Pal][Sar]K([PEG2″-PEG2″-γGlu-C18OH])-NH2 (disulfide 2-7 (inferred)) [SEQ ID NO: 51] | < 0.5 | ≥ 500 |
| {Biotin-PEG4′}-[dR][Pen]NT[Trp(7-Me)]K(Ac)[Pen][AEF][2Nal][Thp]EN[3Pal][Sar]K([PEG2″-PEG2″-γGlu-C18OH])-NH2 (disulfide 2-7) [SEQ ID NO: 57] | < 0.5 | < 50 |
| Ac-[dK]([PEG2′-PEG2′-γGlu-C18OH])[Pen]NT[Trp(7-Me)]X[Pen][AEF][2Nal][Thp]EN[3Pal][Sar]-NH2 (disulfide 2-7 (inferred); not fully specified (residue 6); printed as MeCO-k(PEG2PEG2gEC18OH)-Pen(3)-N-T-7MeW-K(d)-Pen(3)-AEF-2Nal-THP-E-N-3Pya-Sar-CONH2) [SEQ ID NO: 34] | < 0.5 | < 50 |
| [dR][Pen]NT[Trp(7-Me)]K(code d)[Pen][AEF][2Nal][Thp]EN[3Pal][Sar]-NH2 (disulfide 2-7 (inferred); not fully specified (N-terminus); printed as HOC18gEPEG2PEG2CO-r-Pen(3)-N-T-7MeW-K(d)-Pen(3)-AEF-2Nal-THP-E-N-3Pya-Sar-CONH2) [SEQ ID NO: 46] | < 0.5 | < 50 |

Now from value to binder:

| PBMC pSTAT3 IC50 [1] [nM] | IC50, IL23R reporter assay [2] [nM] | Binder |
| --- | --- | --- |
| < 0.5 | < 50 | Ac-[dR][Pen]XT[Trp(7-Me)]K(Ac)[Pen][AEF][2Nal][Thp]EN[3Pal][NMeK]([PEG2′-PEG2′-γGlu-C18OH])-NH2 (disulfide 2-7 (inferred); not fully specified (residue 3); printed as MeCO-r-Pen(3)-K(d)-T-7MeW-K(Ac)-Pen(3)-AEF-2Nal-THP-E-N-3Pya-NMeK(PEG2PEG2gEC18OH)-CONH2) [SEQ ID NO: 30] |
| < 0.5 | < 50 | Ac-[dR][Pen]NT[Trp(7-Me)]K(Ac)[Pen][dAEF′][2Nal][Thp]K([PEG2′-PEG2′-γGlu-C18OH])N[3Pal][Sar]-NH2 (disulfide 2-7 (inferred); reading uncertain; also: printed as MeCO-r-Pen(3)-N-T-7MeW-K(Ac)-Pen(3)-AEF(d)-2Nal-THP-K(PEG2PEG2gEC18OH)-N-3Pya-Sar-CONH2) [SEQ ID NO: 22] |
| < 0.5 | < 50 | Ac-[dK]([PEG2′-PEG2′-γGlu-C18OH])[Pen]XT[Trp(7-Me)]K(Ac)[Pen][AEF][2Nal][Thp]EN[3Pal][Sar]-NH2 (disulfide 2-7 (inferred); not fully specified (residue 3); printed as MeCO-k(PEG2PEG2gEC18OH)-Pen(3)-K(d)-T-7MeW-K(Ac)-Pen(3)-AEF-2Nal-THP-E-N-3Pya-Sar-CONH2) [SEQ ID NO: 35] |
| < 0.5 | < 50 | [dR][Pen]K(code d)T[Trp(7-Me)]K(Ac)[Pen][AEF][2Nal][Thp]EN[3Pal][Sar]-NH2 (disulfide 2-7 (inferred); not fully specified (N-terminus); printed as HOC18gEPEG2PEG2CO-r-Pen(3)-K(d)-T-7MeW-K(Ac)-Pen(3)-AEF-2Nal-THP-E-N-3Pya-Sar-CONH2) [SEQ ID NO: 47] |
| < 0.5 | < 50 | Ac-K([PEG2′-PEG2′-γGlu-C18OH])[Pen]NT[Trp(7-Me)]K(Ac)[Pen][AEF][2Nal][Thp]K(Ac)N[3Pal][Sar]-NH2 (disulfide 2-7 (inferred)) [SEQ ID NO: 39] |
| < 0.5 | < 50 | [dR][Pen]NT[Trp(7-Me)]K(Ac)[Pen][AEF][2Nal][Thp]EN[3Pal][NMeK](code d)-NH2 (disulfide 2-7 (inferred); not fully specified (N-terminus); printed as HOC18gEPEG2PEG2CO-r-Pen(3)-N-T-7MeW-K(Ac)-Pen(3)-AEF-2Nal-THP-E-N-3Pya-NMeK(d)-CONH2) [SEQ ID NO: 43] |
| < 0.5 | < 50 | Ac-[dR][Pen]NT[Trp(7-Me)]Q[Pen][AEF][2Nal][Thp]EN[3Pal][Sar]K([PEG2′-PEG2′-γGlu-C18OH])-NH2 (disulfide 2-7 (inferred)) [SEQ ID NO: 38] |
| < 0.5 | < 50 | Ac-[dK]([PEG2′-PEG2′-γGlu-C18OH])[Pen]NT[Trp(7-Me)]K(Ac)[Pen][AEF][2Nal][Thp]EN[3Pal][NMeK](code d)-NH2 (disulfide 2-7 (inferred)) [SEQ ID NO: 42] |
| < 0.5 | < 50 | Ac-[dR][Pen]XT[Trp(7-Me)]K(Ac)[Pen][AEF][2Nal][Thp]K([PEG2′-PEG2′-γGlu-C18OH])N[3Pal][Sar]-NH2 (disulfide 2-7 (inferred); not fully specified (residue 3); printed as MeCO-r-Pen(3)-K(d)-T-7MeW-K(Ac)-Pen(3)-AEF-2Nal-THP-K(PEG2PEG2gEC18OH)-N-3Pya-Sar-CONH2) [SEQ ID NO: 37] |
| < 0.5 | < 50 | Ac-K[Pen]NT[Trp(7-Me)]K(Ac)[Pen][AEF][2Nal][Thp]EN[3Pal][Sar]-NH2 (disulfide 2-7 (inferred); not fully specified (residue 1); printed as MeCO-k(PEG12gEC20OH)-Pen(3)-N-T-7MeW-K(Ac)-Pen(3)-AEF-2Nal-THP-E-N-3Pya-Sar-CONH2) [SEQ ID NO: 26] |
